Biological target: T1, His-tagged canine IL-31 (interleukin 31) recombinant protein (canine)
T1 construct: Expressed in HEK293 cells, purified on a Ni column; unlabelled analyte in BLI; also called canine IL-31 recombinant protein; biotin-labeled canine IL-31 recombinant protein
Assay: BLI (Gator), biotinylated antibody on streptavidin probe, canine IL-31 as analyte

Kd: 19.3 nM
koff: 0.00203 s⁻¹
kon: 105000 M⁻¹ s⁻¹
B1: Lokivetmab (antibody, V domains shown)
VH: EVQLVESGGDLVKPGGSLRLSCVASGFTFSNYGMSWVRQAPGKGLQWVATISYGGSYTYYPDNIKGRFTISRDNAKNTLYLQMNSLRAEDTAMYYCVRGYGYDTMDYWGQGTLVTVSS
VL: EIVMTQSPASLSLSQEEKVTITCKASQSVSFAGTGLMHWYQQKPGQAPKLLIYRASNLEAGVPSRFSGSGSGTDFSFTISSLEPEDVAVYYCQQSREYPWTFGQGTKLEIKR

— patent publication EP4745156A1 (Beijing Vjtbio Co., Ltd., dated 2026)
